Data: patent US20260049134A1 (UNIVERSITY OF FLORIDA RESEARCH FOUNDATION, published 2026)

Experiments:
[1] = target: T1, CADM1, endogenous in H929 multiple myeloma cells (human, UniProt Q9BY67 45-442); assay: flow cytometry, H929 + NT Green siRNA; None 416
T1 construct: Native protein on H929 cells (flow cytometry, siRNA knockdown) and in H929 lysates (IP/MS); RPMI-8226 cells were used for sorting with HW-97; also called IGSF4A
T1 sequence: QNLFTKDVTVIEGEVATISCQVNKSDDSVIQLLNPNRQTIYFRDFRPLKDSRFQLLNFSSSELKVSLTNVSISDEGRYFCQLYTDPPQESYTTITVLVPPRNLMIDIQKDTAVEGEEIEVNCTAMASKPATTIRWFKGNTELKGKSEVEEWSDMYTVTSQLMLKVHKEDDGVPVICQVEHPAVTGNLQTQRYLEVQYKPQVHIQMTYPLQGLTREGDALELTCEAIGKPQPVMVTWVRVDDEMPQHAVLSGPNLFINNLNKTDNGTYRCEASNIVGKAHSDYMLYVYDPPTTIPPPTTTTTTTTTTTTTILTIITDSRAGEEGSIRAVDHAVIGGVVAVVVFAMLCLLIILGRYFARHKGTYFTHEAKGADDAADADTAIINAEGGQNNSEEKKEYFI

[2] = target: T2, PTPRG, endogenous in H929 multiple myeloma cells (human, UniProt P23470 20-1445); assay: IP from H929 cell lysate, LC-MS/MS, heatmap
T2 construct: Native protein on H929 cells (flow cytometry, siRNA knockdown) and in H929 lysates (IP/MS); also called phosphatase receptor type γ
T2 sequence (P23470 20-1445 limits assumed): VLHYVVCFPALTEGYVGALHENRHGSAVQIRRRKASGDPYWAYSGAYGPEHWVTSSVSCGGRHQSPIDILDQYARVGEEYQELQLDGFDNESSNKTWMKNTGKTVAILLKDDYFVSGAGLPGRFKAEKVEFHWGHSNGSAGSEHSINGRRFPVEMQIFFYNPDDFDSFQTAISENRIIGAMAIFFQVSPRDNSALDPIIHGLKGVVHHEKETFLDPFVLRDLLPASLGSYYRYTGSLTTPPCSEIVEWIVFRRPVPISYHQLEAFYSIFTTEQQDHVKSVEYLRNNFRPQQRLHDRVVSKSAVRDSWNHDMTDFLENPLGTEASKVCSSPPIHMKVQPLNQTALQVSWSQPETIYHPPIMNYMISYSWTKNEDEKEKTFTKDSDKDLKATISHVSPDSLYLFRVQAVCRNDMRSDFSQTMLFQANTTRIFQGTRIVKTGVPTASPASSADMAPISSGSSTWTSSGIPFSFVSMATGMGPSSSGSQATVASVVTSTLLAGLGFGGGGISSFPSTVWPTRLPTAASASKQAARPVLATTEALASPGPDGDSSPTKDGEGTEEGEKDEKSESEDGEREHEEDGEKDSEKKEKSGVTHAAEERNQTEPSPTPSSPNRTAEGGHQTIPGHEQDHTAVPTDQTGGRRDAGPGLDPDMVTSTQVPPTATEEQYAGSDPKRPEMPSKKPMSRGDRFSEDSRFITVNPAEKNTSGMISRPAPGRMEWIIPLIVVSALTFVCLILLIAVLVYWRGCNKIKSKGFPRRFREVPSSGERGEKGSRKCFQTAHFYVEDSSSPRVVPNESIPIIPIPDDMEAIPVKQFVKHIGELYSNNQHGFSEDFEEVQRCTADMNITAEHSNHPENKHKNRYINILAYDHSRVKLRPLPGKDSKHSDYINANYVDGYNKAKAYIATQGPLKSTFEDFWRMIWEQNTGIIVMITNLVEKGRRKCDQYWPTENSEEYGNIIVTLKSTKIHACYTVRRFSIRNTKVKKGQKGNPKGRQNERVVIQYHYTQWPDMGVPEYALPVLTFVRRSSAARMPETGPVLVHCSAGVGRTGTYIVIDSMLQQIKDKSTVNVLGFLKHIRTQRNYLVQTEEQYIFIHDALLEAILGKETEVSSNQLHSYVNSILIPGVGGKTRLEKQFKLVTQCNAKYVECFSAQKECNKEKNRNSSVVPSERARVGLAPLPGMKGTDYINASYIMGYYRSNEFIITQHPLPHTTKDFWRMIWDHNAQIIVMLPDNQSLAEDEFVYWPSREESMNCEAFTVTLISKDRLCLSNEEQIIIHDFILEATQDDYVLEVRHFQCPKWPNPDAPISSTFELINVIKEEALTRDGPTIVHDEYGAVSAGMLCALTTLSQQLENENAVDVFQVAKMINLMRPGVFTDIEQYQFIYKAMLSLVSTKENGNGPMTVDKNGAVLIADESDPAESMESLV
Description: (§1) Immunoprecipitation. […] After 30 min of rocking at 4° C., and lysates were centrifuged at 18,400×g for 20 min at 4° C. Subsequently, 1-mL aliquots of the supernatants were pre-cleared twice with Protein G agarose (Thermo Fisher Scientific) by adding 50 μL of 50% resin slurry and incubating 30 min with end-over-end tumbling at 4° C., followed by centrifugation at 16,000×g for 5 min and pooling of the pre-cleared cell lysate aliquots. Representative mAbs from each cluster were immobilized on Protein G agarose at a ratio of 25 μg IgG1 per 30 μL of 50% slurry, diluted to 500 μL with Dulbecco's PBS (DPBS) and incubated for 1 h at 4° C. with tumbling, followed by centrifugation at 5,000×g for 30 s and 2 washes with lysis buffer. After the last wash, the ˜15 μL of IgG1-coated resin was blocked with 10 μL of 10% BSA (MilliporeSigma). Next, 1 mL of the pooled pre-cleared cell lysate was added to the IgG1-coated resin and incubated for 3 h at 4° C. with tumbling. The immune complexes were pelleted by centrifugation at 2,500×g at 4° C. for 30 s, and gently resuspended to wash for 3 min in 1 mL of lysis buffer, which was repeated once with lysis buffer and twice with an identical wash buffer lacking Triton X-100. Finally, the immune complexes were eluted from the resin with three batch-wise steps using 30 μL of elution buffer (6 or 8 M urea (MilliporeSigma), 20 mM Tris-HCl pH 7.5, and 100 mM NaCl) and incubating 15 min at RT with 450 rpm orbital agitation. Finally, 16 μL of the eluate (˜20%) was analyzed on a reducing SDS-PAGE gel stained with SYPRO Ruby dye (Bio-Rad Laboratories), while the rest was stored at −80° C. prior to LC-MS/MS analysis.
(§2) Protein elutions in 6 or 8 M urea were reduced with 15 mM dithiothreitol at 56° C. for 30 min followed by alkylation with 30 mM iodoacetamide in the dark at RT. The elutions were then diluted to 1 M urea with 50 mM ammonium bicarbonate pH 7.8 and digested overnight at 37° C. following the addition of 4 μg trypsin (Promega).

[3] = target: T3, ICAM1, endogenous in H929 multiple myeloma cells (human, UniProt P05362 28-532); assay: IP from H929 cell lysate, LC-MS/MS, heatmap
T3 construct: Native protein on H929 cells (flow cytometry, siRNA knockdown) and in H929 lysates (IP/MS); also called CD54
T3 sequence (P05362 28-532 limits assumed): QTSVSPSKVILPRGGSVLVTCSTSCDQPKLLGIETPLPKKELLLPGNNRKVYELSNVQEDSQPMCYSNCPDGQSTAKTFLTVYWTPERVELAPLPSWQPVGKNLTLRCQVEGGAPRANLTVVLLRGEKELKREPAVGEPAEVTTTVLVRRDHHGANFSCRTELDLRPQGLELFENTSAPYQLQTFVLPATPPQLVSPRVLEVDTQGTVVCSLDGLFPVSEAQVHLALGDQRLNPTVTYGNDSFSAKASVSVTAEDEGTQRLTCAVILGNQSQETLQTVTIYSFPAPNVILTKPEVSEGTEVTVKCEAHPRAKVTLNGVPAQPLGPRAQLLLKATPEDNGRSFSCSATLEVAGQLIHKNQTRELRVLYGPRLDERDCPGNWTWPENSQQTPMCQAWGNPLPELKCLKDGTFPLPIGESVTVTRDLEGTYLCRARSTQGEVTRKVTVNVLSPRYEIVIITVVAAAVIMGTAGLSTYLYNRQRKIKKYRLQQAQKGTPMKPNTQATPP
Description: as §1, §2

B1: HW-101 chimeric rabbit-human IgG1 LA/LA/PG (antibody, V domains shown)
VH: QEQLVESGGRLVTPGTPLTLTCKASGFSLGKYDMSWVRQAPGKGLEWIGTIYAGSGSTWYASWAKGRFTISKTSTTVDLKMTSLTTEDTATYFCARDFLGVNSIWGPGTLVTISS
VL: SFVLTQPASVQVNLGQTVSLTCTADTLSRSYASWYQQKPDQAPVLLIHRDTSRPSGVPDRFSGSNSGNTATLTISGAQAGDEADYYCATSDGSGSNFHFVFGGGTQLTVTG
notes: Fc-silenced (L234A/L235A/P329G) IgG1, lambda; Alexa Fluor 647-labeled in single-step flow cytometry; Cluster C-97
[1]
  mAb binding (MFI): 6440
[2]
  binding result: no binding
[3]
  binding result: no binding
